Consider six sequences from the Immune Epitope Database (IEDB).

The target of assay [1] is HLA-A*69:01. Nature of the assay: IEDB peptide-MHC binding, purified MHC/competitive/fluorescence; filed as Kd, often an IC50 or EC50 that approximates it; ≥ and ≤ were set here for values at or beyond the usual limits of such assays. Conditions: source organism: Mycobacterium tuberculosis variant bovis BCG str. Pasteur 1173P2.
In assay [2] the target is HLA-A*31:01. Described as above. Conditions: source organism: Mycobacterium tuberculosis variant bovis BCG str. Pasteur 1173P2.
For assay [3], the target named is HLA-B*15:17. Described as above. Conditions: source organism: Mycobacterium tuberculosis variant bovis BCG str. Pasteur 1173P2.
Assay [4] deals with HLA-B*83:01. Described as above. Conditions: source organism: Mycobacterium tuberculosis variant bovis BCG str. Pasteur 1173P2.
In assay [5] the target is HLA-A*02:03. The assay is described as above. Conditions: source organism: Mycobacterium tuberculosis variant bovis BCG str. Pasteur 1173P2.
The target in assay [6] is HLA-B*39:01. The description is as above. Conditions: source organism: Mycobacterium tuberculosis variant bovis BCG str. Pasteur 1173P2.
For assay [7], the target named is HLA-B*15:01. Described as above. Conditions: source organism: Mycobacterium tuberculosis variant bovis BCG str. Pasteur 1173P2.
For assay [8], the target named is HLA-B*48:01. Described as above. Conditions: source organism: Mycobacterium tuberculosis variant bovis BCG str. Pasteur 1173P2.
The target of assay [9] is HLA-B*45:06. The description is as above. Conditions: source organism: Mycobacterium tuberculosis variant bovis BCG str. Pasteur 1173P2.
In assay [10] the target is HLA-B*35:01. The description is as above. Conditions: source organism: Mycobacterium tuberculosis variant bovis BCG str. Pasteur 1173P2.
For assay [11], the target named is HLA-A*01:01. The description is as above. Conditions: source organism: Mycobacterium tuberculosis variant bovis BCG str. Pasteur 1173P2.
For assay [12], the target named is HLA-B*27:05. The assay is described as above. Conditions: source organism: Mycobacterium tuberculosis variant bovis BCG str. Pasteur 1173P2.
Assay [13] concerns the target HLA-B*46:01. The description is as above. Conditions: source organism: Mycobacterium tuberculosis variant bovis BCG str. Pasteur 1173P2.
For assay [14], the target named is HLA-A*02:06. The assay is described as above. Conditions: source organism: Mycobacterium tuberculosis variant bovis BCG str. Pasteur 1173P2.
Assay [15] concerns the target HLA-A*03:01. The description is as above. Conditions: source organism: Mycobacterium tuberculosis variant bovis BCG str. Pasteur 1173P2.
The target of assay [16] is HLA-A*30:01. Described as above. Conditions: source organism: Mycobacterium tuberculosis variant bovis BCG str. Pasteur 1173P2.
In assay [17] the target is HLA-B*15:42. Described as above. Conditions: source organism: Mycobacterium tuberculosis variant bovis BCG str. Pasteur 1173P2.
For assay [18], the target named is HLA-A*11:01. The assay is described as above. Conditions: source organism: Mycobacterium tuberculosis variant bovis BCG str. Pasteur 1173P2.
Assay [19] has as its target HLA-B*18:01. Described as above. Conditions: source organism: Mycobacterium tuberculosis variant bovis BCG str. Pasteur 1173P2.
The target in assay [20] is HLA-B*15:09. The assay is described as above. Conditions: source organism: Mycobacterium tuberculosis variant bovis BCG str. Pasteur 1173P2.
Assay [21] addresses HLA-A*02:01. The description is as above. Conditions: source organism: Mycobacterium tuberculosis variant bovis BCG str. Pasteur 1173P2.
Assay [22] concerns the target HLA-B*40:01. The assay is described as above. Conditions: source organism: Mycobacterium tuberculosis variant bovis BCG str. Pasteur 1173P2.
Assay [23] concerns the target HLA-B*57:01. Described as above. Conditions: source organism: Mycobacterium tuberculosis variant bovis BCG str. Pasteur 1173P2.
Assay [24] addresses HLA-B*51:01. The assay is described as above. Conditions: source organism: Mycobacterium tuberculosis variant bovis BCG str. Pasteur 1173P2.
For assay [25], the target named is HLA-B*58:01. Described as above. Conditions: source organism: Mycobacterium tuberculosis variant bovis BCG str. Pasteur 1173P2.
The target of assay [26] is HLA-B*52:01. Description: IEDB peptide-MHC binding, purified MHC/competitive/radioactivity; filed as Kd, often an IC50 or EC50 that approximates it; ≥ and ≤ were set here for values at or beyond the usual limits of such assays. Conditions: source organism: Homo sapiens.
For assay [27], the target named is HLA-B*27:05. Nature of the assay: IEDB peptide-MHC binding, purified MHC/competitive/fluorescence; ≥ and ≤ were set here for values at or beyond the usual limits of such assays. Conditions: source organism: hepatitis C virus genotype 1a.
In assay [28] the target is HLA-B*40:02. Description: IEDB peptide-MHC binding, cellular MHC/competitive/fluorescence; ≥ and ≤ were set here for values at or beyond the usual limits of such assays. Conditions: source organism: Homo sapiens.
The target of assay [29] is HLA-A*69:01. Nature of the assay: IEDB peptide-MHC binding, purified MHC/direct/fluorescence; filed as Kd, often an IC50 or EC50 that approximates it; ≥ and ≤ were set here for values at or beyond the usual limits of such assays. Conditions: source organism: Brucella abortus.
Assay [30] deals with HLA-A*31:01. Described as above. Conditions: source organism: Brucella abortus.
The target in assay [31] is HLA-C*12:03. Described as above. Conditions: source organism: Brucella abortus bv. 1 str. 9-941.
Assay [32] deals with HLA-A*26:01. The description is as above. Conditions: source organism: Brucella suis 1330.
For assay [33], the target named is HLA-A*02:03. Described as above. Conditions: source organism: Brucella suis 1330.
Assay [34] concerns the target HLA-B*07:02. The assay is described as above. Conditions: source organism: Brucella abortus.
Assay [35] has as its target HLA-B*15:01. Described as above. Conditions: source organism: Brucella abortus.
Assay [36] deals with HLA-B*08:01. Described as above. Conditions: source organism: Brucella suis 1330.
In assay [37] the target is HLA-A*02:12. The description is as above. Conditions: source organism: Brucella suis 1330.
Assay [38] concerns the target HLA-A*01:01. The description is as above. Conditions: source organism: Brucella abortus.
Assay [39] addresses HLA-B*44:02. The description is as above. Conditions: source organism: Brucella abortus.
Assay [40] has as its target HLA-B*27:05. The assay is described as above. Conditions: source organism: Brucella abortus.
The target of assay [41] is HLA-A*03:01. The description is as above. Conditions: source organism: Brucella abortus.
Assay [42] concerns the target HLA-A*02:19. The description is as above. Conditions: source organism: Brucella suis 1330.
Assay [43] concerns the target HLA-A*11:01. Described as above. Conditions: source organism: Brucella abortus.
The target in assay [44] is HLA-A*02:11. The assay is described as above. Conditions: source organism: Brucella suis 1330.
Assay [45] addresses HLA-A*02:01. The assay is described as above. Conditions: source organism: Brucella abortus.
The target of assay [46] is HLA-B*40:01. Described as above. Conditions: source organism: Brucella abortus.
For assay [47], the target named is HLA-B*58:01. The description is as above. Conditions: source organism: Brucella abortus.
The target of assay [48] is HLA-A*02:01. Description: IEDB peptide-MHC binding, cellular MHC/competitive/fluorescence; ≥ and ≤ were set here for values at or beyond the usual limits of such assays. Conditions: source organism: Homo sapiens.

By Kd is commonly meant the concentration at which binding is half-saturated. In general, IC50 refers to the concentration that gives 50% inhibition.

On to KPIPHRTVL, for which the Kd in [1] was at least 20000 nM; in [2], at least 20000 nM; in [3], at least 20000 nM; in assay [4], 762 nM; in [5], at least 20000 nM; in [6], 18.8 nM. The Kd was at least 20000 nM in assay [7]; at least 20000 nM in [8]; at least 5000 nM in assay [9]; 623 nM in assay [10]; 570 nM in assay [11]; at least 20000 nM in assay [12]. In addition, the Kd is at least 20000 nM in [13]; 2830 nM in assay [14]; 2290 nM in assay [15]; 763 nM in assay [16]; at least 5000 nM in assay [17]; 125 nM in assay [18]. Also, the Kd in [19] is at least 20000 nM; in assay [20] it was 1320 nM; in [21] it was at least 20000 nM; in [22] it was at least 20000 nM; in assay [23], at least 20000 nM; in [24], at least 20000 nM. In assay [25], this sequence returned a Kd of at least 20000 nM.
For the sequence QQITQTEV, the Kd in [26] was at least 30200 nM.
As for GSAAICGKY, in [27], the IC50 amounted to 4820 nM.
GSFSRFYSL registered an IC50 in assay [28] of 300 nM.
As to KLYERNTAF, the Kd in assay [29] was at least 20000 nM; in assay [30], 138 nM; in [31], 266 nM; in [32], at least 20000 nM; in assay [33], 27 nM; in assay [34], at least 20000 nM. The Kd was 57.8 nM in [35]; 112 nM in assay [36]; 88 nM in assay [37]; at least 20000 nM in [38]; at least 20000 nM in [39]; 325 nM in [40]. Besides, the Kd in assay [41] is 511 nM; in assay [42], at least 5000 nM; in [43] it was 3990 nM; in assay [44] it was 9 nM; in [45] it was 286 nM; in assay [46], at least 20000 nM. In [47], this sequence yielded a Kd of 284 nM.
In assay [48], FLMDFIHQV came in with an IC50 of 240 nM. This counts as sub-micromolar.
